In patent publication US20240424125A1 (Zymeworks, published 2024):

How the values were obtained:
[1] = target: T1, recombinant His-tagged human FRα (ACROBiosystems) (human, UniProt P15328 25-233); experiment: BLI (Octet RED96): antibody on anti-human IgG Fc capture biosensor, His-tagged hFRα as analyte, 1:1 global fit, mean of n=2
T1 construct: also called hFRα; hFRα antigen; not shown: His tag
Procedure, shortened: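 Run at 30° C with 1000 rpm shaking in kinetics buffer (PBS pH 7.4, 0.1% BSA, 0.02% Tween 20, 0.05% sodium azide) plus 0.06% Tween 20, sometimes 1% BSA. Reference-subtracted curves globally fitted to a 1:1 model, giving kon, koff and KD.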

[2] = target: T2, FOLR3, commercial purified protein (R&D Systems Cat. No. 5319-FR) (human, UniProt P41439 23-245, limits assumed); experiment: ELISA on coated FOLR3 protein
T2 construct: Coated on the ELISA plate; also called folate receptor gamma (FOLR3)
Experimental: FOLR3 binding: ELISA 96-well plate was coated with commercial purified FOLR3 protein (R&D Systems, Inc., Minneapolis, MN; Cat. No. 5319-FR) for 1 hr at 37° C. The plate was blocked with 1% milk in PBS pH 7.4 for 1 hr at RT. Following blocking, primary antibodies were added at 7 nM for 1 hr at RT. […] Plates were developed using tetramethylbenzidine (TMB) and HCl was used to stop reaction. Absorbance was read at 450 nm using a Synergy™ H1 microplate reader (BioTek Instruments, Winooski, VT).

[3] = target: T1, recombinant His-tagged human FRα …; experiment: SPR (Biacore T200): hFRα amine-coupled to CM5 chip at medium-low antigen density, bivalent FSA injected, 1:1 Langmuir fit, mean of n=2
Experimental: (§1) CM5 Series S sensor chip, Biacore™ amine coupling kit (NHS, EDC and 1 M ethanolamine), and 10 mM sodium acetate buffers were purchased from GE Healthcare Life Science (Mississauga, ON, Canada). PBS running buffer with 0.05% Tween20 (PBST) was purchased from Teknova Inc. (Hollister, CA). Recombinant human FRα was purchased from ACRObiosystems (Newark, DE).
(§2) Screening of the variants for binding to hFRα antigen was conducted in two steps: capture of hFRα onto surface, followed by injection of three to five concentrations of variant. The hFRα surface was prepared on a CM5 Series S sensor chip by standard amine coupling methods as described by the manufacturer (GE Healthcare Life Science, Mississauga, ON, Canada). The immobilization of the hFRα was performed using Biacore™ T200 immobilization wizard with an amine coupling method aiming for resonance units (RUs) ranging from 5 to 200 RUs. Using multi-cycle kinetics, three to five concentrations of a two-fold dilution series of samples starting at 300 nM with a blank buffer control were injected at 50 uL/min for 180s with a 600s dissociation phase, resulting in a set of sensorgrams with a buffer blank reference. The hFRα surface was regenerated to prepare for the next injection cycle by one pulse of 10 mM glycine/HCl pH 1.5 for 30s at 30 uL/min. Blank-subtracted sensorgrams were analyzed using Biacore™ T200 Evaluation Software v3.0. The blank-subtracted sensorgrams were then fit to the 1:1 Langmuir binding model.

[4] = target: T1, recombinant His-tagged human FRα …; experiment: SPR (Biacore T200): hFRα amine-coupled to CM5 chip at high antigen density, bivalent FSA injected, 1:1 Langmuir fit, mean of n=2
Experimental: as §1, §2

human FRα on cells [5] = target: T3, human FRα on cells (human, UniProt P15328 25-234); experiment: apparent Kd, flow cytometry, CHO-S cells transiently expressing human FRα, 24 h at 4°C
T3 construct: Transiently expressed on HEK293-6e, CHO-S or HEK293 microarray cells, or endogenous on JEG-3, HEC-1-A, IGROV-1, OVCAR-3, H2110, KB-HeLa and T-47D cells; also called human folate receptor alpha; FOLR1
Experimental: (§3) Briefly, CHO-S cells were transfected for −24 hours to transiently express human or cynomolgus monkey FRα, 1 ug DNA per 1 million cells. Following transfection, cells were seeded at 50,000 cells/well in V-bottom 96-well plates and treated with antibody for 24 hours at 4° C. to prevent internalization. […] Following incubation and washing, fluorescence was detected by flow cytometry on a BD LSRFortessa™ Cell Analyzer (BD Biosciences, Franklin Lake, NJ).

human FRα on cells [6] = target: T3, human FRα on cells; experiment: apparent Kd, flow cytometry on JEG-3 cells (endogenous FRα), 24 h at 4°C
Experimental: Briefly, cells were seeded at 50,000 cells/well in V-bottom 96-well plates and treated with antibody for 24 hours at 4° C. to prevent internalization. […] Following incubation and washing, fluorescence was detected by flow cytometry on a BD LSRFortessa™ Cell Analyzer (BD Biosciences, Franklin Lake, NJ) with 1,000 minimum events collected per well. AF647/APC-A GeoMean (fluorescence signal geometric mean, proportional to anti-Human AF647 binding) in live cell population was plotted using GraphPad Prism Version 9 (GraphPad Software, San Diego, CA).

[7] = target: T4, cynomolgus monkey FRα on cells (cynomolgus monkey, UniProt P15328 29-234 (human entry)); experiment: apparent Kd, flow cytometry, CHO-S cells transiently expressing cynomolgus monkey FRα (same experiment as Table 15.1, more digits)
T4 construct: Transiently expressed on CHO-S cells; also called Cyno FRα; cynomolgus FRα
Experimental: as §3

[8] = target: T1, recombinant His-tagged human FRα …; experiment: BLI (Octet RED96): antibody loaded on anti-human IgG Fc capture biosensors, His-tagged hFRα in solution. Six traces with fit lines plateau between about 0.17 and 0.5 nm during 0-400 s association and decay almost to baseline by 900 s. The legend prints the same globally fitted KD for all six traces (single run; the text prints only the mean of n=2).
Experimental: The assay buffer used was KB buffer (kinetics buffer, composed of PBS pH 7.4, 0.1% BSA, 0.02% Tween 20, 0.05% sodium azide) supplemented with 0.06% Tween 20 and in some instances also with 1% BSA. The experiment was conducted at 30° C. with a shake speed of 1000 rpm.
Data analysis was performed using Data Analysis Software 9.0 (ForteBio, Fremont CA). The reference-subtracted binding curves were globally fitted to the 1:1 interaction model to generate the binding kinetic parameters kₒₙ, koff, and the dissociation constant KD.

T1 sequence (P15328 25-233 limits assumed): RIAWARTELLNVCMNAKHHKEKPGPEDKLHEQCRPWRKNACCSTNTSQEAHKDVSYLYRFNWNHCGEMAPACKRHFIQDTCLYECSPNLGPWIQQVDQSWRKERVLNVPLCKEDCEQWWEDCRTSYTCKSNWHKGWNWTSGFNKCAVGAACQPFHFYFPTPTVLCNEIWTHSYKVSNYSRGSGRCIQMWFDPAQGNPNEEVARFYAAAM
T3 sequence (P15328 25-234 limits assumed): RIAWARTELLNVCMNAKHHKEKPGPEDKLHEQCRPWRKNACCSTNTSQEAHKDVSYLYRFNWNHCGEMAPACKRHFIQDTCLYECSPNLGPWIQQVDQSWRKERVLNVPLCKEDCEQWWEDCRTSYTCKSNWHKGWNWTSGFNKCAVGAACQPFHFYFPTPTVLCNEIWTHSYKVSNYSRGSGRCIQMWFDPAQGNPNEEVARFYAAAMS
T2 sequence (P41439 23-245 limits assumed): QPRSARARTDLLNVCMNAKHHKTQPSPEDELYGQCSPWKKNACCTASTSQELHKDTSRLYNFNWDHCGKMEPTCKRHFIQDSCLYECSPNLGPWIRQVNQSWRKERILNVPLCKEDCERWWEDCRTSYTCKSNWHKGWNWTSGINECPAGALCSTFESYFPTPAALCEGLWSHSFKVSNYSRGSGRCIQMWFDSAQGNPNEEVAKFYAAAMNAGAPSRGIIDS
T4 sequence (P15328 other isoform, or with tags, fused parts or gaps limits assumed): as the sequence (P15328 25-234 limits assumed) above, with I2T, A3T, W4R, R37K, A146P, H171Y counted along it

B1: v23924 (antibody, human IgG1, kappa, V domains shown)
VH: QSVKESEGGLFKPTDTLTLTCTVSGFSLSSYGVSWVRQAPGNGLEWIGAVNSGGSAYYANWAKSRSTITRNTNLFTVTLKMTSLAVADTATYFCARSGSGYPMDYLAIWGPGTLVTVSS
VL: AYDMTQTPASVEVAVGGTVTIKCQASQSIGDWLAWYQQKPGQPPRLLIYEASTLASGVPSRFSGSGSGTQFTLTISGVECADAATYYCQQGYGRSNVDNIFGGGTEVVVKR
notes: Rabbit-human chimeric full-size antibody, human IgG1/kappa, HomoFc; also called variant v23924; parental chimeric anti-FRα antibody
[1]
  Kd: 27 nM
[2]
  binding result: no binding (tested: 7 nM)
[3]
  Kd: 2.29 nM
[4]
  Kd: 0.278 nM
Human FRα on cells [5]
  Kd: 0.08 nM
Human FRα on cells [6]
  Kd: 0.32 nM
[7]
  Kd: 0.122 nM
[8]
  Kd: 20.6 nM
